Data published in US9988424 (DUKE UNIVERSITY, dated 2018).
Where a chain is given by its changes, count along the chain named.

Legend:
D.9009SA V1V2 Tags [1] = molecular target: T1, D.9009SA V1V2 Tags; experiment: ELISA, OD405 at 10 ug/ml mAb
T1 Env construct: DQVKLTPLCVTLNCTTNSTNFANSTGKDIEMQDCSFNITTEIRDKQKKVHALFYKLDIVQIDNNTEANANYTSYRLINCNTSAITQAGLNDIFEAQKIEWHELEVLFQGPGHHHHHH

C.1086 gp140 [2] = molecular target: T2, C.1086 gp140; experiment: ELISA, OD405 at 10 ug/ml mAb
T2 construct: also called C.1086gp140C

AE.con gp140CF [3] = molecular target: T3, AE.con gp140CF; experiment: ELISA, OD405 at 10 ug/ml mAb
T3 construct: also called AE.con.env03 gp140CF

A.9004SS V1V2 Tags [4] = molecular target: T4, A.9004SS V1V2 Tags; experiment: ELISA, OD405 at 10 ug/ml mAb
T4 Env construct: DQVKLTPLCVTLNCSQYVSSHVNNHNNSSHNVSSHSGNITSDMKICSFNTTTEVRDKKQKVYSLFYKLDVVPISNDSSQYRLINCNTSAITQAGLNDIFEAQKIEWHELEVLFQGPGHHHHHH

AE.A244 V1V2 Tags = AE.A244 V1V2 Tags (HIV-1); experiment: ELISA
B.Case A2 V1/V2 Tags = molecular target: T5, B.Case A2 V1/V2 Tags; experiment: ELISA, OD405
T5 Env construct: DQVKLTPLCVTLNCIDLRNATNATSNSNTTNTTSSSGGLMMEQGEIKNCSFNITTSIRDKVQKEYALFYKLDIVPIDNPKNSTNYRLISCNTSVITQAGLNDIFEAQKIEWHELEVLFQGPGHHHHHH

D.9009SA V1V2 Tags [5] = molecular target: T1, D.9009SA V1V2 Tags; experiment: ELISA, OD405
B. 681-7 gp140C = experiment: ELISA, OD405
C.1086 gp140 [6] = molecular target: T2, C.1086 gp140; experiment: ELISA, OD405
G.con gp140CF = molecular target: T6, G.con gp140CF; experiment: ELISA, OD405
T6 construct: also called G.con.env03 gp140CF

B.63521 gp140C = experiment: ELISA, OD405
Con 6 gp120 = experiment: ELISA, OD405
B. 684-6 gp140C = experiment: ELISA, OD405
AE.con gp140CF [7] = molecular target: T3, AE.con gp140CF; experiment: ELISA, OD405
A.9004SS V1V2 Tags [8] = molecular target: T4, A.9004SS V1V2 Tags; experiment: ELISA, OD405
B.62357 140C = molecular target: T7, B.62357 140C; experiment: ELISA, OD405
T7 construct: also called B.62357 gp140C

J08 C.97ZA012V1V2 = molecular target: T8, J08 C.97ZA012V1V2 (HIV-1); experiment: ELISA, mAb 0.001-100 ug/ml on coated V1V2 scaffold, OD450
T8 chain: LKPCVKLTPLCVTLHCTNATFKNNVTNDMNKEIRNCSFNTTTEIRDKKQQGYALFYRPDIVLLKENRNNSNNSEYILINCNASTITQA

[9] = molecular target: T9, J08 A.92RW020V1V2/N156QN160Q (HIV-1); experiment: as above
T9 construct: also called J08 A.92RW020VV1V2/N156QN160Q

gp70 A.92RW020V1V2 = gp70 A.92RW020V1V2 (murine leukemia virus; HIV-1); experiment: as above
[10] = molecular target: T10, gp70 B.HXB2/BALV1V2/N156QN160Q (murine leukemia virus; HIV-1); experiment: as above
T10 chain: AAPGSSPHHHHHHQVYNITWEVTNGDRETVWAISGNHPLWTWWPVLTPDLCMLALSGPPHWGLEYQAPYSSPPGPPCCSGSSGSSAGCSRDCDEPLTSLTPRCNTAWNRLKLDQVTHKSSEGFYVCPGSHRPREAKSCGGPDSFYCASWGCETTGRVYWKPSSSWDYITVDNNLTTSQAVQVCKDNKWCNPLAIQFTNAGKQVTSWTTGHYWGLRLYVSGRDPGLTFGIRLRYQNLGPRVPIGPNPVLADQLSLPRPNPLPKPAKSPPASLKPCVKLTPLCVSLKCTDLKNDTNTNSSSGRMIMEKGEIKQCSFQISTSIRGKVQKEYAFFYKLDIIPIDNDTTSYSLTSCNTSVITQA

gp70 B.HXB2/BALV1V2 = molecular target: T11, gp70 B.HXB2/BALV1V2 (murine leukemia virus; HIV-1); experiment: as above
T11 chain: T10 chain with Q311N, Q315N

[11] = molecular target: T12, J08 B.HXB2/BALV1V2N156QN160Q (HIV-1); experiment: as above
T12 chain: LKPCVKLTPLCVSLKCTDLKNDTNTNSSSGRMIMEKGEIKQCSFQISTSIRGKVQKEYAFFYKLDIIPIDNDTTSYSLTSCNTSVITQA

92TH023 gp120 = 92TH023 gp120 (HIV-1)

B1: CH59 (antibody, V domains shown)
VH: EVQLVESGGGLVQPGRSLRLSCAASGFTFDDGAMHWVRQAPGKGLEWVSGISWNSNIIAYADSVKGRFTISRDNAKNSLYLEMNSLRVEDTALYYCAKDSPRGELPLNYWGQGTLVTVSS
VL: SYELTQPPSVSVSPGQTARITCSGDALPKNYAYWYQQKSGQAPVLVIYEDSKRPSGIPERFSGSSSGTMATLTISGAQVEDEADYYCYSTDSSGNHRVFGGGTKLTVL
notes: also called mAb CH59
B1: binds (D.9009SA V1V2 Tags [1]); binds (C.1086 gp140 [2]); binds (AE.con gp140CF [3]). B1: binds (A.9004SS V1V2 Tags [4]).

B2: 697D (antibody, V domains shown)
VH: QVQLVQSGAEVKKPGSSVKVSCKASGGNFNTYTISWVRQAPGQGLEWMGRIIPIFGIVNPAQKFPGRVTINVDKSTNTAYMELSSLRSEDTAVYYCATSGVGLHFGYFDYWGQGTQVTVSS
VL: QSVLTQPPSVSGAPGQRVTISCTGSSSNIGAHYDVHWYQQLPGTAPKLLIYGNSNRPSGVPDRFSGSKSGTSASLAITGLQAEDEADYYCQSYDSSLSGYVFGTGTKVTVL
notes: also called mAb 697D; V2 conformational mAb 697D
With B2 the “EC50 (read off the curve)” value (AE.A244 V1V2 Tags) was about 0.1 µg/mL.

B3: 697D reverted unmutated ancestor antibody (antibody, V domains shown)
VH: QVQLVQSGAEVKKPGSSVKVSCKASGGTFSSYTISWVRQAPGQGLEWMGRIIPILGIANYAQKFQGRVTITADKSTSTAYMELSSLRSEDTAVYYCATSGVGLHFGYFDYWGQGTLVTVSS
VL: B2 VL with H32G
notes: also called 697D RUA
B3: no binding (tested: 10 ug/ml) (B.Case A2 V1/V2 Tags); no binding (tested: 10 ug/ml) (D.9009SA V1V2 Tags [5]); no binding (tested: 10 ug/ml) (B. 681-7 gp140C). B3: no binding (tested: 10 ug/ml) (C.1086 gp140 [6]); no binding (tested: 10 ug/ml) (G.con gp140CF); no binding (tested: 10 ug/ml) (B.63521 gp140C). B3: no binding (tested: 10 ug/ml) (Con 6 gp120); no binding (tested: 10 ug/ml) (B. 684-6 gp140C); no binding (tested: 10 ug/ml) (AE.con gp140CF [7]). B3: no binding (tested: 10 ug/ml) (A.9004SS V1V2 Tags [8]); no binding (tested: 10 ug/ml) (B.62357 140C).

B4: PG16 (antibody, V domains shown)
VH: QEQLVESGGGVVQPGGSLRLSCLASGFTFHKYGMHWVRQAPGKGLEWVALISDDGMRKYHSDSMWGRVTISRDNSKNTLYLQFSSLKVEDTAMFFCAREAGGPIWHDDVKYYDFNDGYYNYHYMDVWGKGTTVTVSS
VL: QSALTQPASVSGSPGQTITISCNGTSSDVGGFDSVSWYQQSPGKAPKVMVFDVSHRPSGISNRFSGSKSGNTASLTISGLHIEDEGDYFCSSLTDRSHRIFGGGTKVTVL
notes: also called mAb PG16; bnAb PG16
B4: no binding (tested: 100 ug/ml) (J08 C.97ZA012V1V2); no binding (tested: 100 ug/ml) [9]; no binding (tested: 100 ug/ml) (gp70 A.92RW020V1V2). B4: no binding (tested: 100 ug/ml) [10]; no binding (tested: 100 ug/ml) (gp70 B.HXB2/BALV1V2); no binding (tested: 100 ug/ml) [11]. For the same binder, the IC50 (92TH023 gp120) was 10 to 100 nM.
